Data on two molecules can be found in patent US20220017863A1 (H LEE MOFFITT CANCER CENTER AND RESEARCH INSTITUTE, published 2022).

The assay deals with T1, Sirt2 (mouse, UniProt Q8VDQ8 2-389, limits assumed).
T1 construct: Endogenous protein immunoprecipitated from T cell lysates with anti-Sirt2 (Sigma #9441); also called Sirtuin 2
T1 sequence (looked up): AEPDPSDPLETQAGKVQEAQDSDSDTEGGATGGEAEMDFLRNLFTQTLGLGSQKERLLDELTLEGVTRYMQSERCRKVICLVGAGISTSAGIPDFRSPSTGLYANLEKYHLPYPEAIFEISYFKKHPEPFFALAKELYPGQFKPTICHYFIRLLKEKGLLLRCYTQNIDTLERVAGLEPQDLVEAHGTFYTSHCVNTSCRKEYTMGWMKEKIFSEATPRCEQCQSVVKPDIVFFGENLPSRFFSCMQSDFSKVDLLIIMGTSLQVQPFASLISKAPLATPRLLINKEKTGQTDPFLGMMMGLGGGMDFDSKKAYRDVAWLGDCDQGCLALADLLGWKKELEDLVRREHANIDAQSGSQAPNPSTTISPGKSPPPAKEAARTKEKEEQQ
Kind of assay: co-IP/immunoblot and reverse co-IP/immunoblot, activated WT mouse CD3+ T cell extracts.

B1: aldolase A (ALDOA) (enzyme, mouse, UniProt P05064 2-364, looked up)
chain: PHPYPALTPEQKKELSDIAHRIVAPGKGILAADESTGSIAKRLQSIGTENTEENRRFYRQLLLTADDRVNPCIGGVILFHETLYQKADDGRPFPQVIKSKGGVVGIKVDKGVVPLAGTNGETTTQGLDGLSERCAQYKKDGADFAKWRCVLKIGEHTPSALAIMENANVLARYASICQQNGIVPIVEPEILPDGDHDLKRCQYVTEKVLAAVYKALSDHHVYLEGTLLKPNMVTPGHACTQKFSNEEIAMATVTALRRTVPPAVTGVTFLSGGQSEEEASINLNAINKCPLLKPWALTFSYGRALQASALKAWGGKKENLKAAQEEYIKRALANSLACQGKYTPSGQSGAAASESLFISNHAY
notes: also called Aldolase 1
B1: the binding result is on record as “binds”.

B2: succinate-CoA ligase alpha subunit (SUCLG1) (enzyme)
chain: not shown
notes: also called succinyl-CoA ligase alpha subunit; Succinyl-CoA Ligase
In the case of B2, the binding result is on record as “binds”.
